Source: PMC2894786, “Fibronectin-binding protein B variation in Staphylococcus aureus” (BMC Microbiology, 2010)

B1: recombinant FnBPB N23 isotype I (residues 162-480) from S. aureus strain 8325-4 (domain or fragment)
chain: TGTDVTNKVEVEEGSEIVGHKQDTNVVNPHNAERVTLKYKWKFGEGIKAGDYFDFTLSDNVETHGISTLRKVPEIKSTDGQVMATGEIIGERKVRYTFKEYVQEKKDLTAELSLNLFIDPTTVTQKGNQNVEVKLGETTVSKIFNIQYLGGVRDNWGVTANGRIDTLNKVDGKFSHFAYMKPNNQSLSSVTVTGQVTKGNKPGVNNPTVKVYKHIGSDDLAESVYAKLDDVSKFEDVTDNMSLDFDTNGGYSLNFNNLDQSKNYVIKYEGYYDSNASNLEFQTHLFGYYNYYYTSNLTWKNGVAFYSNNAQGDGKDKLK
notes: cloned BamHI/SmaI into pQE30 with a 3' stop codon; also called rN23 isotype I; rN23 type I; source: E. coli TOPP 3, pQE30, purified (Ni2+ chelate chromatography); not shown: His6, N-terminal, kept

Columns and labels:
[1] = target: human fibronectin (human); experiment: SPR; BIAcore X100; fibrinogen, elastin or fibronectin amine-coupled to CM5 chips; rN23 type I passed over at 0.15 μM to 10 μM in PBS; blank flow cell subtracted; equilibrium dissociation constants
[2] = target: human fibronectin (human); experiment: ELISA; solid-phase binding: elastin (50 μg/ml), fibrinogen (10 μg/ml) or fibronectin (10 μg/ml) coated on microtitre wells; purified rFnBPB N23 in PBS added, 37°C for 2 hr; bound protein detected with anti-hexahistidine monoclonal antibody 7E8
human fibrinogen (human) = human fibrinogen (human) (UniProt P02671); experiment: as above
[3] = target: human aortic elastin (human) (UniProt P15502); experiment: as above
human aortic elastin [4] = target: T1, human aortic elastin (human, UniProt P15502 27-786); experiment: as above; conditions: both partners purified
T1 construct: elastin from human aorta; Tissue elastin is a cross-linked material; The vendor named for the ELISA differs from that named for the SPR; source: bought: Elastin Products Company (ELISA); Enzyme Research Laboratories (SPR)
T1 sequence: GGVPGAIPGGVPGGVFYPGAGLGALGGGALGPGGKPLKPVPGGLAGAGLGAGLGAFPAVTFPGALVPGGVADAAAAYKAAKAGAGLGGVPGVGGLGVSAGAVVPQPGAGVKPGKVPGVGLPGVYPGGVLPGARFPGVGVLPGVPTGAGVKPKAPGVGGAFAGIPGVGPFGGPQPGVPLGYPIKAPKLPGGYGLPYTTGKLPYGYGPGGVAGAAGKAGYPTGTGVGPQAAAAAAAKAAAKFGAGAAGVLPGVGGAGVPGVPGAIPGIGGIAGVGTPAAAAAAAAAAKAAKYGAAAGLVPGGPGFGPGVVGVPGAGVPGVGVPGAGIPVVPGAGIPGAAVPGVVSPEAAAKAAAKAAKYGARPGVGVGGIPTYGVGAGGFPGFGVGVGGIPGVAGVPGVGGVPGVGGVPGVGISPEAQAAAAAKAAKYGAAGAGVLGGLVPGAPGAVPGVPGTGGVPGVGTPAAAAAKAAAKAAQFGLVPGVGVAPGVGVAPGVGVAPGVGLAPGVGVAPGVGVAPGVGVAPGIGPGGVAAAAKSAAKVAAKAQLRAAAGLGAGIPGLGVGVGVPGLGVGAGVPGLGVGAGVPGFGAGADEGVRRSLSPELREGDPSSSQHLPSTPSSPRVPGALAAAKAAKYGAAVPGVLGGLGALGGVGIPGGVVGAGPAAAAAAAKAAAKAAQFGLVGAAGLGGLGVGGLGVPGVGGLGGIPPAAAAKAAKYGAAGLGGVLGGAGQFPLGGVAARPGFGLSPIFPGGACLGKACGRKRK

human fibrinogen [5] = target: T2, human fibrinogen (human, UniProt P02671-2 20-644; P02675 31-491; P02679-2 27-437); experiment: as above; conditions: both partners purified
T2 construct: fibrinogen alpha chain, human; fibrinogen beta chain, human; fibrinogen gamma chain, human; source: bought: Calbiochem; copies: + +
T2 sequence 1: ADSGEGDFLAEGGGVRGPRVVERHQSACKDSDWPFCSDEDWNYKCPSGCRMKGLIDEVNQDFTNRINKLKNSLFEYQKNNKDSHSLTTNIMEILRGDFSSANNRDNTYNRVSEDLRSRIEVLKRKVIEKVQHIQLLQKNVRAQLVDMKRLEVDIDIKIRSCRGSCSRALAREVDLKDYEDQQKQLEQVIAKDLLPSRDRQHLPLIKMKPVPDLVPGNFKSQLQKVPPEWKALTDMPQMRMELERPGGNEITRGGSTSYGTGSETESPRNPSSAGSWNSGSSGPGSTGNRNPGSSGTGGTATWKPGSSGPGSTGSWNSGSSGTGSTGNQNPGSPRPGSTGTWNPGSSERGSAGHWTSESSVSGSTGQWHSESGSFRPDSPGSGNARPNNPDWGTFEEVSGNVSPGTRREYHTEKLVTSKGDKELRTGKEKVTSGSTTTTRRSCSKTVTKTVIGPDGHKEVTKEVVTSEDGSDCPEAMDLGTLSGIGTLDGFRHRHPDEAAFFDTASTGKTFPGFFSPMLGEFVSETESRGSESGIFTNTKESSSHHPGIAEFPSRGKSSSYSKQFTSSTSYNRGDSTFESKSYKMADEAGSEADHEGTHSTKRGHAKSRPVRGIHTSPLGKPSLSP
T2 sequence 2: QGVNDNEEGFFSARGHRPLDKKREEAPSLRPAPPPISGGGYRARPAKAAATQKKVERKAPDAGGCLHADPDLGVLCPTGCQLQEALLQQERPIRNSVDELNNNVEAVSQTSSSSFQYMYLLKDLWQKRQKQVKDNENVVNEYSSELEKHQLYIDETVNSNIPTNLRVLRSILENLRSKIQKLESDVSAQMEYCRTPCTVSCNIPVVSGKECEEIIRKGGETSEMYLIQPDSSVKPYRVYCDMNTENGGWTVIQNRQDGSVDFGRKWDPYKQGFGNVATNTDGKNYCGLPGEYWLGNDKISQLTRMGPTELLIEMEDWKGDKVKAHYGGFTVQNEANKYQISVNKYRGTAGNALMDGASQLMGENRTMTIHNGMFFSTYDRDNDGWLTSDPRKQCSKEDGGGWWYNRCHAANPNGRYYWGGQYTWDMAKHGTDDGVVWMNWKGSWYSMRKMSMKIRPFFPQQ
T2 sequence 3: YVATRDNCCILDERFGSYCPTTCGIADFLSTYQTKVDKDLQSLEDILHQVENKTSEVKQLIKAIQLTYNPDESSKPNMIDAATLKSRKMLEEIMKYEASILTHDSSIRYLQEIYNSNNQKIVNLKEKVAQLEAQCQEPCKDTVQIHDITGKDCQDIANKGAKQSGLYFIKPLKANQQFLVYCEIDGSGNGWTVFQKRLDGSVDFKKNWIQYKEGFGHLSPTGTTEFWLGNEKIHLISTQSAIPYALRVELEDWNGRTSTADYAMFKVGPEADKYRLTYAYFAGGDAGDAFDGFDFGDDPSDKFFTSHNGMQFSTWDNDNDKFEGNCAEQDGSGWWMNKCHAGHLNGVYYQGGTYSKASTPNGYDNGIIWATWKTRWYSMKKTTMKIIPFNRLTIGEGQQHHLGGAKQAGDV

human aortic elastin [6] = target: T1, human aortic elastin; experiment: SPR; BIAcore X100; fibrinogen, elastin or fibronectin amine-coupled to CM5 chips; rN23 type I passed over at 0.15 μM to 10 μM in PBS; blank flow cell subtracted; equilibrium dissociation constants; conditions: both partners purified
human fibrinogen [7] = target: T2, human fibrinogen; experiment: as above; conditions: both partners purified

Molecule	Kd [1] [nM]	EC50 [2] [nM]	EC50 (human fibrinogen (human)) [nM]	EC50 [3] [nM]	EC50 (human aortic elastin [4]) [nM]	EC50 (human fibrinogen [5]) [nM]	Kd (human aortic elastin [6]) [nM]	Kd (human fibrinogen [7]) [nM]
recombinant FnBPB N23 isotype I (residues 162-480) from S. aureus strain 8325-4 (from UniProt A0A0H2XKG3 162-480) (domain or fragment)	2500	1500	–	–	–	–	–	–
recombinant FnBPB N23 isotype II from S. aureus strain N315 (domain or fragment)	–	1500	500	900	–	–	–	–
recombinant FnBPB N23 isotype III from S. aureus strain MSSA476 (domain or fragment)	–	1500	500	900	–	–	–	–
recombinant FnBPB N23 isotype IV from S. aureus strain P1 (domain or fragment)	–	1500	500	900	–	–	–	–
recombinant FnBPB N23 isotype V from S. aureus strain 2 (domain or fragment)	–	1500	500	900	–	–	–	–
recombinant FnBPB N23 isotype VI from S. aureus strain 3077 (domain or fragment)	–	1500	500	900	–	–	–	–
recombinant FnBPB N23 isotype VII from S. aureus strain 233 (domain or fragment)	–	1500	500	900	–	–	–	–
B1	–	–	–	–	~900	~500	3200	2000
